Consider six molecules from article PMC5753033.

Where a chain is given by its changes, count along the chain named. Names may count otherwise.

The Kd is a measure of binding affinity in units of concentration. The low end stands for tighter binding, the high end for weaker binding.

For test [1], the target named is T1, Mouse profilin 2a, Q9JJV2.
T1 chain: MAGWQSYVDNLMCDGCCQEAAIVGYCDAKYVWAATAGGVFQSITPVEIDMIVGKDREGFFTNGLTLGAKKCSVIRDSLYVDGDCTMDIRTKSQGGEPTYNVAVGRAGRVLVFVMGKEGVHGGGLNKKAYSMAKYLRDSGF
In words: sedimentation equilibrium analytical ultracentrifugation. Conditions: chain shown with the change.

The next test addresses Human profilin 1, P07737. The description is as above. Conditions: chain shown with the change; modeled as a 1:1 interaction.
Setting [2] is: two-site, independent binding model with one site fixed to the measured non-specific affinity.

B1: WAVE1 (P): human WAVE1 [277–488], wild-type proline-rich domain, Q92558 P279G; P280S; P281G; P282S; P325G; P326S; P327G; P328S; P369G; P370S; P371G; P372S; … (protein)
chain: MPLVKRNIDPRHLCHTALPRGIKNELECVTNISLANIIRQLSSLSKYAEDIFGELFNEAHSFSFRVNSLQERVDRLSVSVTQLDPKEEELSLQDITMRKAFRSSTIQDQQLFDRKTLPIPLQETYDVCEQPPPLNILTPYRDDGKEGLKFYTNPSYFFDLWKEKMLQDTEDKRKEKRKQKQKNLDRPHEPEKVPRAPHDRRREWQKLAQGPELAEDDANLLHKHIEVANGPASHFETRPQTYVDHMDGSYSLSALPFSQMSELLTRAEERVLVRPHEPGSGSPMHGAGDAKPIPTCISSATGLIENRPQSPATGRTPVFVSPTPGSGSPPLPSALSTSSLRASMTSTPPPPVPPPPPPPATALQAPAVGSGSAPLQIAPGVLHPAGSGIAGSLVQPSPPVARAAPVCETVPVHPLPQGEVQGLPPGSGSPPLGSGGIRPSSPVTVTALAHPPSGLHPTPSTAPGPHVPLMPPSPPSQVIPASEPKRHPSTLPVISDARSVLLEAIRKGIQLRKVEEQREQEAKHERIENDVATILSRRIAVEYSDSEDDSEFDEVDWLE
For B1, the dissociation constant (Kd) in test [1] (setting [2]) was determined as 12 µM.

B2: WAVE1 (P): human WAVE1 [277–488], wild-type proline-rich domain, Q92558 P279G; P280S; P281G; P282S; P348G; P349S; P350G; P351S; P354G; P355S; P356G; P357S; … (protein)
chain: MPLVKRNIDPRHLCHTALPRGIKNELECVTNISLANIIRQLSSLSKYAEDIFGELFNEAHSFSFRVNSLQERVDRLSVSVTQLDPKEEELSLQDITMRKAFRSSTIQDQQLFDRKTLPIPLQETYDVCEQPPPLNILTPYRDDGKEGLKFYTNPSYFFDLWKEKMLQDTEDKRKEKRKQKQKNLDRPHEPEKVPRAPHDRRREWQKLAQGPELAEDDANLLHKHIEVANGPASHFETRPQTYVDHMDGSYSLSALPFSQMSELLTRAEERVLVRPHEPGSGSPMHGAGDAKPIPTCISSATGLIENRPQSPATGRTPVFVSPTPPPPPPPLPSALSTSSLRASMTSTGSGSVPGSGSPPATALQAPAVGSGSAPLQIAPGVLHPAGSGIAGSLVQPSPPVARAAPVCETVPVHPLPQGEVQGLPPGSGSPPLGSGGIRPSSPVTVTALAHPPSGLHPTPSTAPGPHVPLMPPSPPSQVIPASEPKRHPSTLPVISDARSVLLEAIRKGIQLRKVEEQREQEAKHERIENDVATILSRRIAVEYSDSEDDSEFDEVDWLE
Molecule B2 returned a Kd in test [1] (WAVE1 (PRD [B]) 15.5 µM, Pfn2 91.2, 44.8 and 21.7 µM, 7 K, 10 K, 14 K rpm, 2:1 binding model, Kd1 fit, Kd2 = 138 µM fixed) of 2.07 µM. That is a single-digit micromolar value.

B3: WAVE1 (P): human WAVE1 [277–488], wild-type proline-rich domain, Q92558 P279G; P280S; P281G; P282S; P325G; P326S; P327G; P328S; P348G; P349S; P350G; P351S; … (protein)
chain: B2 chain with P325G, P326S, P327G, P328S, G369P, S370P, G371P, S372P
B3 displayed a dissociation constant Kd in test [1] (setting [2]) of 145 µM.

B4: WAVE1 (P): human WAVE1 [277–488], wild-type proline-rich domain, Q92558 P279G; P280S; P281G; P282S; P325G; P326S; P327G; P328S; P348G; P349S; P350G; P351S; … (protein)
chain: B2 chain with P325G, P326S, P327G, P328S
B4: the Kd was 138 µM in test [1] (modeled as a 1:1 interaction) and 813 µM with Human profilin 1, P07737.

B5: WAVE1 (P): human WAVE1 [277–488], wild-type proline-rich domain, Q92558 P325G; P326S; P327G; P328S; P348G; P349S; P350G; P351S; P354G; P355S; P356G; P357S; … (protein)
chain: B2 chain with G279P, S280P, G281P, S282P, P325G, P326S, P327G, P328S
As for B5, the Kd in test [1] (setting [2]) was determined as 51 µM.

B6: WAVE1 (P): human WAVE1 [277–488], wild-type proline-rich domain, Q92558 P279G; P280S; P281G; P282S; P325G; P326S; P327G; P328S; P348G; P349S; P350G; P351S; … (protein)
chain: B2 chain with P325G, P326S, P327G, P328S, G386P, S387P, G388P, G391P, S392P
Regarding B6, in test [1] (setting [2]), the Kd was 182 µM.
